Test results published in US20050100554A1 (published 2005).

B3: Human papillomavirus 11 E2 (other)
chain: MEAIAKRLDACQDQLLELYEENSIDIHKHIMHWKCIRLESVLLHKAKQMGLSHIGLQVVPPLTVSETKGHNAIEMQMHLESLAKTQYGVEPWTLQDTSYEMWLTPPKRCFKKQGNTVEVKFDGCEDNVMEYVVWTHIYLQDNDSWVKVTSSVDAKGIYYTCGQFKTYYVNFNKEAQKYGSTNHWEVCYGSTVICSPASVSSTVREVSIAEPTTYTPAQTTAPTVSACTTEDGVSAPPRKRARGPSTNNTLCVANIRSVDSTINNIVTDNYNKHQRRNNCHSAATPIVQLQGDSNCLKCFRYRLNDKYKHLFELASSTWHWASPEAPHKNAIVTLTYSSEEQRQQFLNSVKIPPTIRHKVGFMSLHLL
notes: also called HPV 11 E2; cbe_250781

Assays:
SCO1 = target: T1, SCO1 (human, UniProt O75880 68-301); experiment: Y2H; INT ID 6
T1 construct: also called cbe_1699351
T1 sequence: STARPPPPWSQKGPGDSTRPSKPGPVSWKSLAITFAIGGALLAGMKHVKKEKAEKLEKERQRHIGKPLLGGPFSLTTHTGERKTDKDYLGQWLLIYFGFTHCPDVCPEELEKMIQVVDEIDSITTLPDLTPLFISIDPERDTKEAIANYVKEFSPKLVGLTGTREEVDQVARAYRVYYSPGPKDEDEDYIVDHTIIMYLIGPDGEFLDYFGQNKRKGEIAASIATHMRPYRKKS

MT2A = target: T2, MT2A (human, UniProt P02795 1-61); experiment: Y2H; INT ID 5
T2 construct: also called cbe_862174
T2 sequence (P02795 whole entry): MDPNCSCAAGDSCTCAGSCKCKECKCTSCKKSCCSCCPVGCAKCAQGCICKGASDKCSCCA

[1] = target: T3, steroid receptor RNA activator 1 (human, UniProt Q9HD15 1-224); experiment: Y2H; INT ID 7
T3 construct: also called SRA1; cbe_4344185
T3 sequence: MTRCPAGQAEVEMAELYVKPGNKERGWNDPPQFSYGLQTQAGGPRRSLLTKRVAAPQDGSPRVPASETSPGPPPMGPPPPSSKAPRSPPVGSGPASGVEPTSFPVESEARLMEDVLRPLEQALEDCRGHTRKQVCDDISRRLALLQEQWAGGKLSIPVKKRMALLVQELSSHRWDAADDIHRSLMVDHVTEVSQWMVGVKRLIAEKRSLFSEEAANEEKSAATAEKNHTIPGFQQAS

[2] = target: B3; experiment: Y2H; INT ID 14
KRT8 = target: T4, KRT8 (human, UniProt P05787 1-483); experiment: Y2H; INT ID 16
T4 construct: also called cbe_4269571
T4 sequence: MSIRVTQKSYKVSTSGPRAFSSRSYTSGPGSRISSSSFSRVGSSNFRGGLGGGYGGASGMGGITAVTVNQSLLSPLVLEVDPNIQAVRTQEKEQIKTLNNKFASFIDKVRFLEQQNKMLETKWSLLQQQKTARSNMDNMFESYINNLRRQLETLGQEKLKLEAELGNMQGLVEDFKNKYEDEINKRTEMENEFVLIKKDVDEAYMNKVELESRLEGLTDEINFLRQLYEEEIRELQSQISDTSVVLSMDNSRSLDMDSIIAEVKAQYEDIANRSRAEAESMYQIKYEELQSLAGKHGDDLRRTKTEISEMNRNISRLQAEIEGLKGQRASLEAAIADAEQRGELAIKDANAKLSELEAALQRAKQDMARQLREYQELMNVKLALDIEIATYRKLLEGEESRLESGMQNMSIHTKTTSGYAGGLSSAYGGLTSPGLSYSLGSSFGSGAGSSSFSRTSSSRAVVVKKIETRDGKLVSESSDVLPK

[3] = target: T5, Human Papillomavirus 1a L1 (Human Papillomavirus 1a, UniProt P03099 1-508); experiment: Y2H; INT ID 439
T5 construct: also called HPV 1a L1; cbe_252016
T5 sequence: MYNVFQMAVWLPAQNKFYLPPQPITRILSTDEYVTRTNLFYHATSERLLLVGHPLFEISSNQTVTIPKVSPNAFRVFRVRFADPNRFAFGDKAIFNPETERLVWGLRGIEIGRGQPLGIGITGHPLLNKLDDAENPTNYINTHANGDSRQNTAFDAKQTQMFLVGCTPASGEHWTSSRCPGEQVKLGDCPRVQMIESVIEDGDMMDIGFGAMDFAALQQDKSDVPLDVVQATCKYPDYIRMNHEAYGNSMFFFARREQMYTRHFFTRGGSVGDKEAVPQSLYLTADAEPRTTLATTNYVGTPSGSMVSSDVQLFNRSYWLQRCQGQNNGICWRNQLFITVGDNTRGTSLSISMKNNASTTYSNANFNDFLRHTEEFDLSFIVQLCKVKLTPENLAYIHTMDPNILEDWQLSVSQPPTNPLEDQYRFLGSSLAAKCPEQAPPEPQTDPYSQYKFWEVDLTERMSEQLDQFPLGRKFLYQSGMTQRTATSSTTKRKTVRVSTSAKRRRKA

[4] = target: T5, Human Papillomavirus 1a L1; experiment: Y2H; INT ID 440
[5] = target: T5, Human Papillomavirus 1a L1; experiment: Y2H; INT ID 438
STX4A = target: T6, STX4A (human, UniProt Q12846 1-297); experiment: Y2H (told in text)
T6 construct: also called syntaxin 4; cbe_4270186
T6 sequence: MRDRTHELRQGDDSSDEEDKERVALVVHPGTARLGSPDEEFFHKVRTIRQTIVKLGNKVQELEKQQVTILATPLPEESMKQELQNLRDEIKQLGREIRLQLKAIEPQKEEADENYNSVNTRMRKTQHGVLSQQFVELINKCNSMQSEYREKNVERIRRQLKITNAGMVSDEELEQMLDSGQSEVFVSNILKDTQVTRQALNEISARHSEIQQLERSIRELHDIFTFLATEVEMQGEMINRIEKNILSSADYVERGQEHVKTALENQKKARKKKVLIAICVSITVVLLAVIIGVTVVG

PSMC1 = target: T7, PSMC1 (human, UniProt P62191 2-440); experiment: Y2H (told in text)
T7 construct: also called proteosome 26S subunit; proteosome subunit PMSC1
T7 sequence (P62191 2-440 limits assumed): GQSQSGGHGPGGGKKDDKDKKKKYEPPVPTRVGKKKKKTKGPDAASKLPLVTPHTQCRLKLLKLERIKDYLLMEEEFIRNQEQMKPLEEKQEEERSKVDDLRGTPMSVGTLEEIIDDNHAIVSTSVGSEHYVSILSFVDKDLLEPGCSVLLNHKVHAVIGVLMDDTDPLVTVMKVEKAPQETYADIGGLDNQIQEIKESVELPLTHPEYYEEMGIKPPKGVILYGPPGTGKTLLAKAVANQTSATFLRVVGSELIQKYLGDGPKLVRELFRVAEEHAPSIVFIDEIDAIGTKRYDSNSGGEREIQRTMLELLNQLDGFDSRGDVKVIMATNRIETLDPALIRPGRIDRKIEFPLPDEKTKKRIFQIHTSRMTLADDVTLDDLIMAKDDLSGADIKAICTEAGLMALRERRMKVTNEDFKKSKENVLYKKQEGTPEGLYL

RPS26 = target: T8, RPS26 (human, UniProt P62854 2-115); experiment: Y2H; INT ID 99
T8 construct: also called cbe_4270015

PTPN2 = target: T9, PTPN2 (human, UniProt P17706 1-415); experiment: Y2H; INT ID 160
T9 construct: also called cbe_2576474
T9 sequence (looked up): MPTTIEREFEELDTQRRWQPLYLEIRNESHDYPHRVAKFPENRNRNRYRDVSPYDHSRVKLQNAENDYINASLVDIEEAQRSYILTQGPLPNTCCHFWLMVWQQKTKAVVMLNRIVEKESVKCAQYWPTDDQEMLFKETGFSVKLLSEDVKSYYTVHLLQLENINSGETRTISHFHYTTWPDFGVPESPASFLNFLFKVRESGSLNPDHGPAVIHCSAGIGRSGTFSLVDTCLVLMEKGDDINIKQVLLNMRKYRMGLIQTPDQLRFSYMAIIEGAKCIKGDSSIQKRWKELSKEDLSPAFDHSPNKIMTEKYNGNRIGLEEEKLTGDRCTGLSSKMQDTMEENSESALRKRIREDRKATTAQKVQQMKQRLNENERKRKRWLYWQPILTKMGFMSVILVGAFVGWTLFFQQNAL

B1: Human papillomavirus 11 E4 (other)
chain: MVVPIIGKYVMAAQLYVLLHLYLALYEKYPLLNLLHTPPHRPPPLQCPPAPRKTACRRRLGSEHVDRPLTTPCVWPTSDPWTVQSTTSSLTITTSTKEGTTVTVQLRL
notes: also called HPV 11 E4; cbe_250777
B1: binds (SCO1); binds (MT2A); binds [1].

B2: hypothetical gene supported by AL449243 (other)
chain: MASGAARWLVLAPVRSGALRSGPSLRKDGDVSAAWSGSGRSLVPSGSVIVTRSGAILPKPVKMSFGLLRVFSIVIPFLYVGTLISKNFAALLEEHDIFVPEDDDDDD
notes: also called Hs.306083; LOC91689
B2: binds [2].

B3: binds (KRT8).

B4: NR1H2 (receptor)
chain: MSSPTTSSLDTPLPGNGPPQPGAPSSSPTVKEEGPEPWPGGPDPDVPGTDEASSACSTDWVIPDPEEEPERKRKKGPAPKMLGHELCRVCGDKASGFHYNVLSCEGCKGFFRRSVVRGGARRYACRGGGTCQMDAFMRRKCQQCRLRKCKEAGMREQCVLSEEQIRKKKIRKQQQESQSQSQSPVGPQGSSSSASGPGASPGGSEAGSQGSGEGEGVQLTAAQELMIQQLVAAQLQCNKRSFSDQPKVTPWPLGADPQSRDARQQRFAHFTELAIISVQEIVDFAKQVPGFLQLGREDQIALLKASTIEIMLLETARRYNHETECITFLKDFTYSKDDFHRAGLQVEFINPIFEFSRAMRRLGLDDAEYALLIAINIFSADRPNVQEPGRVEALQQPYVEALLSYTRIKRPQDQLRFPRMLMKLVSLRTLSSVHSEQVFALRLQDKKLPPLLSEIWDVHE
notes: also called cbe_4268726
B4: binds [3].

B5: SCGB1A1 (other)
chain: EICPSFQRVIETLLMDTPSSYEAAMELFSPDQDMREAGAQLKKLVDTLPQKPRESIIKLMEKIAQSSLCN
notes: also called cbe_4296923
B5: binds [4].

B6: isovaleryl Coenzyme A dehydrogenase (enzyme)
chain: HSLLPVDDAINGLSEEQRQLRQTMAKFLQEHLAPKAQEIDRSNEFKNLREFWKQLGNLGVLGITAPVQYGGSGLGYLEHVLVMEEISRASGAVGLSYGAHSNLCINQLVRNGNEAQKEKYLPKLISGEYIGALAMSEPNAGSDVVSMKLKAEKKGNHYILNGNKFWITNGPDADVLIVYAKTDLAAVPASRGITAFIVEKGMPGFSTSKKLDKLGMRGSNTCELIFEDCKIPAANILGHENKGVYVLMSGLDLERLVLAGGPLGLMQAVLDHTIPYLHVREAFGQKIGHFQLMQGKMADMYTRLMACRQYVYNVAKACDEGHCTAKDCAGVILYSAECATQVALDGIQCFGGNGYINDFPMGRFLRDAKLYEIGAGTSEVRRLVIGRAFNADFH
notes: also called IVD; cbe_3800240
B6: binds [5].

B7: Human papillomavirus 16 E6 (other)
chain: MHQKRTAMFQDPQERPRKLPQLCTELQTTIHDIILECVYCKQQLLRREVYDFAFRDLCIVYRDGNPYAVCDKCLKFYSKISEYRHYCYSLYGTTLEQQYNKPLCDLLIRCINCQKPLCPEEKQRHLDKKQRFHNIRGRWTGRCMSCCRSSRTRRETQL
notes: also called HPV 16 E6; HPV16 E6
B7: binds (STX4A); binds (PSMC1); binds (RPS26). B7: binds (PTPN2).
